One block for each binder: values may come before it. Bridge positions count the residues as written; N and C are the ends. Square brackets hold non-standard residues; d marks the D form. Ends that are not written are not given here. Phe(4-tBu) = CC(C)(C)c1ccc(C[C@H](N)C(=O)O)cc1; NMeR = CN[C@@H](CCCNC(=N)N)C(=O)O; β3hE = N[C@@H](CCC(=O)O)CC(=O)O; Pen = CC(C)(S)[C@H](N)C(=O)O
How the values were obtained:
[1] = biological target: T1, human α4β7 integrin on cells (human, UniProt P13612 34-1032; P26010 20-798); test: RPMI8866/MAdCAM cell adhesion
T1 construct: whole, on cells; also called α4β7 cell (Hu); RPMI8866 cells

soluble α4β7 integrin [2] = biological target: T2, soluble α4β7 integrin (UniProt P13612 34-970; P26010 20-723, limits assumed); test: SPR
T2 construct: analyte of the SPR experiment

soluble α4β7 integrin [3] = biological target: T2, soluble α4β7 integrin; test: SPR, binder on streptavidin chip, soluble α4β7
[4] = biological target: T3, rh integrin α4β7 (R&D Systems #5397-A30) (human, UniProt P13612 34-970; P26010 20-723); test: competition ELISA vs MAdCAM-1, 1 mM Mg
T3 construct: bought; coated on a nickel coated plate; also called immobilized α4β7; immobilized α4β7 integrin protein

[5] = biological target: T1, human α4β7 integrin on cells; test: α4β7 T cells
[6] = biological target: T1, human α4β7 integrin on cells; test: RPMI8866 cell adhesion to MAdCAM-1
[7] = biological target: T4, α4β1 (R&D Systems #5668-A4) (UniProt P13612 34-970; P05556 21-728, limits assumed); test: competition ELISA vs VCAM-1, 1 mM Mg
T4 construct: bought; also called soluble α4β1
Experimental: The solution was removed by shaking and then blocked with 250 ul of 1% BSA in 1×PBS per well. The wells were then incubated at room temperature for 1 hr with shaking. Each well was then washed once with wash buffer (50 mM Tris-HCl pH7.6, 100 mM NaCL, 1 mM MnCl2 or MgCl2, 0.05% Tween-20). 25 ul of serial dilutions of peptides starting at […] in assay buffer (Assay buffer: 50 mM Tris-HCl pH7.6, 100 mM NaCl, 1 mM MnCl2 or MgCl2, 0.05% Tween-20) was added to each well. Additionally, 25 ul of α4β1 (R&D Systems #5668-A4) was added to each well at a fixed concentration of 120 nM. The final peptide and α4β1 concentrations were […] and 60 nM, respectively. The plates were then incubated at 37° C. for 2 hr. The solution was then removed by shaking, and each well was washed three times with wash buffer. 50 ul of 9F10 antibody at 4 ug/ml (purified mouse anti-human CD49d, BD Bioscience Cat #555502) was then added to each well, and the plate was incubated at room temperature for 1 hr with shaking. The solution was again removed by shaking, and each well was washed three times with wash buffer. 50 ul of peroxidase-conjugated AffiniPure Goat anti-mouse IgG (Jackson immune research cat #115-035-003) diluted in 1:5000 in assay buffer was added to each well. The plate was incubated at room temperature for 30 min with shaking. […] The reaction was stepped with 2N H₂SO₄ and absorbance was read at 450 nm. […]

[8] = biological target: T5, human α4β1 integrin on cells (human, UniProt P13612 34-1032; P05556 21-798); test: memory T cell adhesion to VCAM-1
T5 construct: whole, on cells; also called α4β1 cell; Jurkat cells

[9] = biological target: T6, mouse α4β7 integrin on TK1 cells (mouse, UniProt Q00651 41-1039; P26011 20-806); test: TK1 cell adhesion to MAdCAM-1
T6 construct: whole, on cells; also called α4β7 cell (Mu); Cell Adhesion α4β7 Mouse

[10] = biological target: T7, human αLβ2 integrin on cells (human, UniProt P20701 26-1170; P05107 23-769); test: memory T cell adhesion to ICAM-1
T7 construct: whole, on cells; also called aLβ2

[11] = biological target: T1, human α4β7 integrin on cells; test: memory T cell adhesion to MAdCAM-1, average of 4 donors

T7 sequence (P20701 26-1170, chain 1 of 2): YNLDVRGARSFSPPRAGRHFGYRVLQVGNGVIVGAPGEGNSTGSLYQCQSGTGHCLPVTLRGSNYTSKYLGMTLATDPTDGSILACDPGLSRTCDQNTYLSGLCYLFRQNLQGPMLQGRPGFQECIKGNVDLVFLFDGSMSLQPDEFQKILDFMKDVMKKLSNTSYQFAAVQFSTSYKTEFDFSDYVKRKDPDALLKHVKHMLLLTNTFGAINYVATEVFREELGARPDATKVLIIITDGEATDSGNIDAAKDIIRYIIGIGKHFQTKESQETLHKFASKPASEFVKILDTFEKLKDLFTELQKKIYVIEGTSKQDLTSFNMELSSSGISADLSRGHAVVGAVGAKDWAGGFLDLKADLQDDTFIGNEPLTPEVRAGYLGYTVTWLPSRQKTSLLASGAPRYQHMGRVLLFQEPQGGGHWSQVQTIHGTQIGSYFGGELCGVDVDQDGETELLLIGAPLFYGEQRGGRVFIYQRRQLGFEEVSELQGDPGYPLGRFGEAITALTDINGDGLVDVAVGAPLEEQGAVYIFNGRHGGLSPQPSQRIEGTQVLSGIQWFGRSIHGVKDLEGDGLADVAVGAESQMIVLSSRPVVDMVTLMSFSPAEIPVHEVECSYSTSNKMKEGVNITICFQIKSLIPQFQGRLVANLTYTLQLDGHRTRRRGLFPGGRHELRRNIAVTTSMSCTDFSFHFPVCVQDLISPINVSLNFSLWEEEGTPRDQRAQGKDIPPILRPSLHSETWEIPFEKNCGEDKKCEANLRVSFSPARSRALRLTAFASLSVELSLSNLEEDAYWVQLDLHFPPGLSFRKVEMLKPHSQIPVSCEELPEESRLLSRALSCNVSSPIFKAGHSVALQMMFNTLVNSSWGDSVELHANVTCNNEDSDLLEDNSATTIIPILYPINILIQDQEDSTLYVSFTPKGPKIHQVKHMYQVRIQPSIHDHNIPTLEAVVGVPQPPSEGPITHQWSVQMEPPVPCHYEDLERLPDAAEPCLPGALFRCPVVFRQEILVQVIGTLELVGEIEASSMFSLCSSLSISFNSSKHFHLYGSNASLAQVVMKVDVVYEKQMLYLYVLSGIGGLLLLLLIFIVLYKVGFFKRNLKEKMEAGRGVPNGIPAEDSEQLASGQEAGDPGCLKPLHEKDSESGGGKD
T7 sequence (P05107 23-769, chain 2 of 2): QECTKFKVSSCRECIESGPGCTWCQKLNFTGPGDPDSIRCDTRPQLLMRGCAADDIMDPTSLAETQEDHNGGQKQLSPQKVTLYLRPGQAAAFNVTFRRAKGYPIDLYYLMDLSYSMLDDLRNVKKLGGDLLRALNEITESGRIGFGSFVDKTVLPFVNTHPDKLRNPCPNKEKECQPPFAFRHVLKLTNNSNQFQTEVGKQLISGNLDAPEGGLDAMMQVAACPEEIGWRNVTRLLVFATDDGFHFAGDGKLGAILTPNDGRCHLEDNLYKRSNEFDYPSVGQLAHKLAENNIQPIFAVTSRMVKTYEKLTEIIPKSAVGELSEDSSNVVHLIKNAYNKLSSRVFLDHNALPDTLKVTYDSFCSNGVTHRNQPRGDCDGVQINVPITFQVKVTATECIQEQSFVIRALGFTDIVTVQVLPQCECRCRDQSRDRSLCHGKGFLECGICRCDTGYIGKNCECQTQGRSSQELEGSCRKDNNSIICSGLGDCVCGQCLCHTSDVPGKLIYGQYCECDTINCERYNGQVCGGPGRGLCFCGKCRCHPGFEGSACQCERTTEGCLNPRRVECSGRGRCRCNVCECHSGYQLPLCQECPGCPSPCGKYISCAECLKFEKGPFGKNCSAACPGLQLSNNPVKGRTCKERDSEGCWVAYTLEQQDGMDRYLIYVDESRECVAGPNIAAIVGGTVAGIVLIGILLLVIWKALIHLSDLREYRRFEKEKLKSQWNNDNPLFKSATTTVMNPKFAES
T6 sequence (Q00651 41-1039, chain 1 of 2): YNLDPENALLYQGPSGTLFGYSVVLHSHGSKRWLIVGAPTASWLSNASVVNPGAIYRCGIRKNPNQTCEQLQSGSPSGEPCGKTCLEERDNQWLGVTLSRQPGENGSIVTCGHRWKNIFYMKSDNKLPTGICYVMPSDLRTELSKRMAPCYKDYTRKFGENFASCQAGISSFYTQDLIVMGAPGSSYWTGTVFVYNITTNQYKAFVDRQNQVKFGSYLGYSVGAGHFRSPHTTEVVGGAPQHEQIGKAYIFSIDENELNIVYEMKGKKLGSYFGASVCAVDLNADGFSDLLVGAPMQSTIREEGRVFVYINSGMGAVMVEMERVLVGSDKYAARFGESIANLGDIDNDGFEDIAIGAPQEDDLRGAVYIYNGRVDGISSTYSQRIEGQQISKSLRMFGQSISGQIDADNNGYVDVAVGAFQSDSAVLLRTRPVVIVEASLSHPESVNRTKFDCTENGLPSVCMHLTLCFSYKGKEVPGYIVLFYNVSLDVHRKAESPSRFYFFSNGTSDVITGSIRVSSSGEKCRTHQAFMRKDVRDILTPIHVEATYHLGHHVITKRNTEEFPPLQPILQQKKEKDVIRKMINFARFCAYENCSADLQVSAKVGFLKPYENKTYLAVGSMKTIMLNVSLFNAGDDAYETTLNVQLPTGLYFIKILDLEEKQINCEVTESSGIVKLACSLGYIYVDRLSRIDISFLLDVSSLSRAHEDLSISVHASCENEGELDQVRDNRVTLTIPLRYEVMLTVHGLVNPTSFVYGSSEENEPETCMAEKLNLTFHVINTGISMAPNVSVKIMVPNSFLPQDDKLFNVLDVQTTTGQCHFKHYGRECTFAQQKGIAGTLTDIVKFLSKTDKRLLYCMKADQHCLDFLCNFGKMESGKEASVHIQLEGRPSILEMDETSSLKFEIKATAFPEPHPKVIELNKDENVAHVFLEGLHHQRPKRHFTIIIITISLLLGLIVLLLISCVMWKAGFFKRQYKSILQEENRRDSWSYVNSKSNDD
T6 sequence (P26011 20-806, chain 2 of 2): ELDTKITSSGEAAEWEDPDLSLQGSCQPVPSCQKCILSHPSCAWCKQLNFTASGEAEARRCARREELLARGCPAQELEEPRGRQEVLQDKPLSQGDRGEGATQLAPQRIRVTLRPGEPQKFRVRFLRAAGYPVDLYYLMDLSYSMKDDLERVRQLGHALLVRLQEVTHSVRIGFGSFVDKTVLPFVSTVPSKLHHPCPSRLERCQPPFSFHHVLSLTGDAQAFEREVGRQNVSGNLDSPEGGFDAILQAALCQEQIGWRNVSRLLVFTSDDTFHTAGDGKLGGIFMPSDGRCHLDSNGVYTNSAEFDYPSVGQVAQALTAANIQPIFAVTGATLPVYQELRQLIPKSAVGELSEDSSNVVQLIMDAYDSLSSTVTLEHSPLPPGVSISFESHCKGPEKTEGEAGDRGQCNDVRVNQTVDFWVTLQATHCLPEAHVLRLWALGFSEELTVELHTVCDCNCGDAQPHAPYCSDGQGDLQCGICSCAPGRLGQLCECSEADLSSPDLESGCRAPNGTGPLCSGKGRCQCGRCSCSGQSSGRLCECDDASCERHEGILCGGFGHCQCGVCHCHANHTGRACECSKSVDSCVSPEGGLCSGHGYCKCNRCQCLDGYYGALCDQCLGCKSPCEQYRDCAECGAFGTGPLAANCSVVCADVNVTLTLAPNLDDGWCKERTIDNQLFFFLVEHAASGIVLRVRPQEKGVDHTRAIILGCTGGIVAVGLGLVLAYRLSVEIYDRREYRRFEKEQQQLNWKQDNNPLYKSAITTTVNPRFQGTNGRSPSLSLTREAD

IC50 [1]: 0.15 nM
B1: Peptide X Alexa 647 conjugate (peptide)
peptide: Ac-[Pen][NMeR]SDTL[Pen][Phe(4-tBu)][β3hE][dK]
modifications: disulfide 1-7; not fully specified (residue 10); also: Alexa 647 label, position not given here

fold lower KD than biotin-labeled vedolizumab (soluble α4β7 integrin [2]): 3.8 fold
Kd (soluble α4β7 integrin [3]): 15.4 nM
koff (soluble α4β7 integrin [3]): 1.73e-05 s⁻¹
kon (soluble α4β7 integrin [3]): 1120 M⁻¹ s⁻¹
B2: Peptide X-biotin (peptide)
peptide: Ac-[Pen][NMeR]SDTL[Pen][Phe(4-tBu)][β3hE][dK]
modifications: disulfide 1-7; not fully specified (residue 10); also: dimer of two subunits joined by a linker at D-Lys10, biotin attached via PEG linker, position not given here

IC50 [4]: 3 nM
IC50 [5]: 1 nM
IC50 [6]: 0.72 nM
IC50 [7]: > 10000 nM
IC50 [8]: > 100000 nM
IC50 [9]: 0.5 nM
IC50 [10]: > 100000 nM
IC50 [11]: 1.3 nM
B3: Peptide X (peptide)
peptide: Ac-[Pen][NMeR]SDTL[Pen][Phe(4-tBu)][β3hE][dK]
modifications: disulfide 1-7; not fully specified (residue 10); printed as [Ac-Pen-(N-Me-Arg)-Ser-Asp-Thr-Leu-Pen-Phe(4-tBu)-(β-homoGlu)-(D-Lys)]2-DIG; also: homodimer via DIG linker on D-Lys side chains
notes: also called Compound X
